B1: wild type RNase J, BACTH fusions (pUT18 and pKNT25) [Helicobacter pylori] / wild type RNase J, BACTH fusions (pUT18 and pKNT25) [Helicobacter pylori] (parent)
chain 1: MTDNNQNNENHENSSENSKADEMRAGAFERFTNRKKRFRENAQKNAEYSNHEASSHHKKEHRPNKKPNNHHKQKHAKTRNYAQEELDSNKVEGVTEILHVNERGTLGFHKELKKGVEANNKIQVEHLNPHYKMNLNSKASVKITPLGGLGEIGGNMMVIETPKSAIVIDAGMSFPKEGLFGVDILIPDFSYLHQIKDKIAGIIITHAHEDHIGATPYLFKELQFPLYGTPLSLGLIGSKFDEHGLKKYRSYFKIVEKRCPISVGEFIIEWIHITHSIIDSSALAIQTKAGTIIHTGDFKIDHTPVDNLPTDLYRLAHYGEKGVMLLLSDSTNSHKSGTTPSESTIAPAFDTLFKEAQGRVIMSTFSSNIHRVYQAIQYGIKYNRKIAVIGRSMEKNLDIARELGYIHLPYQSFIEANEVAKYPDNEILIVTTGSQGETMSALYRMATDEHRHISIKPNDLVIISAKAIPGNEASVSAVLNFLIKKEAKVAYQEFDNIHVSGHAAQEEQKLMLRLIKPKFFLPVHGEYNHVARHKQTAISCGVPEKNIYLMEDGDQVEVGPAFIKKVGTIKSGKSYVDNQSNLSIDTSIVQQREEVASAGVFVATIFVNKNKQALLESSQFSSLGLVGFKDEKPLIKEIQGGLEVLLKSSNAEILNNPKKLEDHTRNFIRKALFKKFRKYPAIICHAHSF
chain 2: B1 chain 1

The assay covers variants of B1. The assay can be described thus: BACTH (bacterial two hybrid), beta-galactosidase read-out. The settings on record: with wild type RNase J, in E. coli, RNJ WT on pUT18, mutant on pKNT25, n ≥ 6, parent: 430, read off a plot.
With chain 1 E616A, the response is 220 Miller units.
For the variant chain 1 E594A, the response came out at 440 Miller units.
Take chain 1 K609A: the response was found to be 500 Miller units.
As for chain 1 K658A, the figure is 220 Miller units; as for chain 1 K632A, 380 Miller units; as for chain 1 E661A, 180 Miller units.
For the variant chain 1 K647A, the response is 130 Miller units.
The figure for chain 1 E593A is 520 Miller units.
As for chain 1 E652A, the response was 210 Miller units.

The record behind these values is paper PMC10700544.
